Results: article PMC3755756

Target: ubiquitin (15N-Ub) (UniProt P0CG48)
Test: NMR titration

Kd relative to the V domains of Alix and HD-PTP (~50 μM): 5 fold
Substance: V domain of S. castelli Bro1 (domain or fragment)
